Experimental data as given in patent publication US20260103686A1, “MICROBIAL STRAIN, PROTEIN, AND METHOD FOR PRODUCING GALLIC ACID USING MICROBIAL STRAIN OR PROTEIN” (UNIVERSITY OF TSUKUBA, priority 2022, published 2026).

Experiments:
Assay in all cases: purified protein, by the assay type
[1] = substrate: O=C(O)c1ccc(O)c(O)c1; type: biochemical, Hylemonella gracilis; settings: other: PCA substrate, 200 µM NADPH, 10 µM FAD, pH 7.9, 25° C., 340 nm
Method: (§1) The cell-free extracts were subjected to a HisTrap HP column (GE healthcare) which was equilibrated with an equilibration buffer (20 mM Tris-HCl buffer (pH 7.9), 20 mM imidazole), and then fractions eluted with an eluent (20 mM Tris-HCl buffer (pH 7.9), 500 mM imidazole) were collected.
The protein concentrations of the purified enzyme liquids were measured using Bio-Rad Protein Assay Dye Reagent Concentrate (Bio-Rad, USA), and the purified enzyme liquids were diluted to 1 of mg/mL with a buffer. Thus, purified enzyme liquids protocatechuic acid 5-hydroxylases, HgPobA, HyPobA, PoPobA, HgPobA-TY and PaPobA, were prepared.
Using the purified enzyme liquids of HgPobA, HgPobA-TY, PoPobA, HyPobA and PaPobA described above, a reaction kinetic analysis was conducted.

[2] = substrate: O=C(O)c1ccc(O)cc1; settings: other: pHBA substrate, 200 µM NADPH, 10 µM FAD, pH 7.9, 25° C., 340 nm
[3] = substrate: O=C(O)c1ccc(O)c(O)c1; settings: other: PCA substrate, 200 µM NADPH, 10 µM FAD, pH 7.9, 25° C., 340 nm
Method: as §1
The protein concentrations of the purified enzyme liquids were measured using Bio-Rad Protein Assay Dye Reagent Concentrate (Bio-Rad, USA), and the purified enzyme liquids were diluted to 1 of mg/mL with a buffer.

B1: Hylemonella gracilis-derived PobA (HgPobA), protocatechuic acid 5-hydroxylase, wild type, SEQ ID NO: 20 (Hylemonella gracilis ATCC 19624) (protein)
chain: MSYPTRTQVAIIGAGPSGLMLGALLHKAGIDTVVLERQSGDYVLGRIRAGVLEQVTMDLMDEIGVGARMHQEGLVHGGFDMLFQGQRHRIDMNRLTGGQNVMVYGQTEVTRDLMDARQQAGLTTIYEAANVAIHDFGSGKPRVTYEKDGKTHELQCDFIAGCDGFHGVCRDTVKKSASASAIREYEKVYNFGWLGLLSDTPPVHHELIYVNSERGFALCSQRSATRSRYYLQVPLTDKVEQWSDQAFWDELKLRLDPQAREHLVTGPSIEKSIAPLRSFVTEPLRFGRLFLAGDAGHIVPPTGAKGLNLAATDVKYLSAALTEFYQGKSEAGINHYSERCLKRIWRAERFSWWFTSLMHRFPENGEIGQKLQEAELDYIVHSETGARSVAENYVGLPLDFGA
B1 gave a Km [1] of 260 µM, a kcat [1] of 0.74 s⁻¹ and a kcat/Km [1] of 2800 M⁻¹ s⁻¹. It also gave a Km [2] of 35 µM, a kcat [2] of 5.6 s⁻¹ and a kcat/Km [2] of 160000 M⁻¹ s⁻¹.

B2: Hylemonella gracilis-derived PobA (HgPobA, SEQ ID NO: 20) variant HgPobA-TY, T302A/Y393F (gene SEQ ID NO: 37) (Hylemonella gracilis ATCC 19624; T302A/Y393F) (protein)
chain: MSYPTRTQVAIIGAGPSGLMLGALLHKAGIDTVVLERQSGDYVLGRIRAGVLEQVTMDLMDEIGVGARMHQEGLVHGGFDMLFQGQRHRIDMNRLTGGQNVMVYGQTEVTRDLMDARQQAGLTTIYEAANVAIHDFGSGKPRVTYEKDGKTHELQCDFIAGCDGFHGVCRDTVKKSASASAIREYEKVYNFGWLGLLSDTPPVHHELIYVNSERGFALCSQRSATRSRYYLQVPLTDKVEQWSDQAFWDELKLRLDPQAREHLVTGPSIEKSIAPLRSFVTEPLRFGRLFLAGDAGHIVPPAGAKGLNLAATDVKYLSAALTEFYQGKSEAGINHYSERCLKRIWRAERFSWWFTSLMHRFPENGEIGQKLQEAELDYIVHSETGARSVAENFVGLPLDFGA
In the case of B2, the Km [2] is reported as 34 µM, the kcat [2] is reported as 3.1 s⁻¹ and the kcat/Km [2] is reported as 91000 M⁻¹ s⁻¹. For the same protein, the Km [3] was 41 µM.
